Data as given in publication PMC6406451.

Target: human TRPM8 fused C-terminally to TEV-GFP-His8-tag (human), Q7Z2W7
Test: SDS-PAGE with in-gel GFP fluorescence; crude S. cerevisiae membranes separated by SDS-PAGE, GFP fluorescence of the fusion read in the gel
Conditions: remark: other sources report otherwise

B1: human TRPM8 fused C-terminally to TEV-GFP-His8-tag, Q7Z2W7 1-1104 (natural protein)
chain: MSFRAARLSMRNRRNDTLDSTRTLYSSASRSTDLSYSESDLVNFIQANFKKRECVFFTKDSKATENVCKCGYAQSQHMEGTQINQSEKWNYKKHTKEFPTDAFGDIQFETLGKKGKYIRLSCDTDAEILYELLTQHWHLKTPNLVISVTGGAKNFALKPRMRKIFSRLIYIAQSKGAWILTGGTHYGLMKYIGEVVRDNTISRSSEENIVAIGIAAWGMVSNRDTLIRNCDAEGYFLAQYLMDDFTRDPLYILDNNHTHLLLVDNGCHGHPTVEAKLRNQLEKYISERTIQDSNYGGKIPIVCFAQGGGKETLKAINTSIKNKIPCVVVEGSGQIADVIASLVEVEDALTSSAVKEKLVRFLPRTVSRLPEEETESWIKWLKEILECSHLLTVIKMEEAGDEIVSNAISYALYKAFSTSEQDKDNWNGQLKLLLEWNQLDLANDEIFTNDRRWESADLQEVMFTALIKDRPKFVRLFLENGLNLRKFLTHDVLTELFSNHFSTLVYRNLQIAKNSYNDALLTFVWKLVANFRRGFRKEDRNGRDEMDIELHDVSPITRHPLQALFIWAILQNKKELSKVIWEQTRGCTLAALGASKLLKTLAKVKNDINAAGESEELANEYETRAVELFTECYSSDEDLAEQLLVYSCEAWGGSNCLELAVEATDQHFIAQPGVQNFLSKQWYGEISRDTKNWKIILCLFIIPLVGCGFVSFRKKPVDKHKKLLWYYVAFFTSPFVVFSWNVVFYIAFLLLFAYVLLMDFHSVPHPPELVLYSLVFVLFCDEVRQWYVNGVNYFTDLWNVMDTLGLFYFIAGIVFRLHSSNKSSLYSGRVIFCLDYIIFTLRLIHIFTVSRNLGPKIIMLQRMLIDVFFFLFLFAVWMVAFGVARQGILRQNEQRWRWIFRSVIYEPYLAMFGQVPSDVDGTTYDFAHCTFTGNESKPLCVELDEHNLPRFPEWITIPLVCIYMLSTNILLVNLLVAMFGYTVGTVQENNDQVWKFQRYFLVQEYCSRLNIPFPFIVFAYFYMVVKKCFKCCCKEKNMESSVCCFKNEDNETLAWEGVMKENYLVKINTKANDTSEEMRHRFRQLDTKLNDLKGLLKEIANKIK
Q: For B1, which stoichiometry N is on record?
A: 2
